The data set “SEC-MALS” concerns the molecule itself. As to the kind of experiment: SEC-MALS.
The data set “native gel or EMSA” concerns the molecule itself. The data set is described as follows: native gel or EMSA. In general terms: In EMSA bound probe runs differently from free probe, usually more slowly.

A word on the stoichiometry N: it is the number of molecules, sites or subunits per partner or assembly. As usually defined, the Kd is the constant that tells how readily two partners part at equilibrium. Low readings indicate higher affinity, high ones lower affinity.

B1: Cdc13 (full-length S. cerevisiae Cdc13) (natural protein, UniProt P32797 1-924, looked up)
chain: MDTLEEPECPPHKNRIFVSSSKDFEGYPSKAIVPVQFVALLTSIHLTETKCLLGFSNFERRGDQSQEDQYLIKLKFKDRGSERLARITISLLCQYFDIELPDLDSDSGASPTVILRDIHLERLCFSSCKALYVSKHGNYTLFLEDIKPLDLVSVISTISTKSTNSSKHSSSELISECDLNNSLVDIFNNLIEMNRDEKNRFKFVKLIHYDIELKKFVQDQQKVLSQKSKAAAINPFFVPNRLGIPYIESQNEFNSQLMTLNVDEPTTDISNMGEEMHDSADPIEDSDSSTTSSTGKYFSSKSYIQSQTPERKTSVPNNWHDDDSGSKRKRKLSFHSPNASSIRKAISYEQLSLASVGSVERLEGKIVGMNPPQFASINEFKYCTLKLYFTQLLPNVPDKVLVPGVNCIEIVIPTRERICELFGVLNCQSDKISDILLLEKPDRISVEVERILWDNDKTASPGMAVWSLKNISTDTQAQAQVQVPAQSSASIDPSRTRMSKMARKDPTIEFCQLGLDTFETKYITMFGMLVSCSFDKPAFISFVFSDFTKNDIVQNYLYDRYLIDYENKLELNEGFKAIMYKNQFETFDSKLRKIFNNGLRDLQNGRDENLSQYGIVCKMNIKVKMYNGKLNAIVRECEPVPHSQISSIASPSQCEHLRLFYQRAFKRIGESAISRYFEEYRRFFPIHRNGSHLAKLRFDEVKHEPKKSPTTPALAEHIPDLNADVSSFDVKFTDISSLLDSSARLPRPQQTHKSNTLYSCEGRIIAIEYHASDLCFHITNELPLLQTRGLAPERVLQLHIITSKNFAYFFNRSSAYLQRQPLEEKYTQLAQFLGHSFKFNITSSLTLFPDTTVALQIWCPIECTFRELQQQLAHPKVAAAPDSGSLDCAINATVNPLRLLAAQNGVTVKKEEDNDDDAGAVPTS
B1: the “stoichiometry N” value in the data set “SEC-MALS” worked out at 2. Besides, in the data set “native gel or EMSA”, the Kd is 5.1 nM.

B2: Cdc13-MOB (middle OB-fold domain, residues 344-496) (domain or fragment, S. cerevisiae, UniProt P32797 344-496, looked up)
chain: KAISYEQLSLASVGSVERLEGKIVGMNPPQFASINEFKYCTLKLYFTQLLPNVPDKVLVPGVNCIEIVIPTRERICELFGVLNCQSDKISDILLLEKPDRISVEVERILWDNDKTASPGMAVWSLKNISTDTQAQAQVQVPAQSSASIDPSRT
Consider B2, for which the “stoichiometry N” value in “SEC-MALS” was determined as 2.

(Values after publication PMC3874162 (Nucleic Acids Research, 2013).)
